Target: Cer-PLN-AFA and YFP-PLN-AFA: canine phospholamban AFA mutant fused at its N-terminus with mCerulean or enhanced YFP (canine) (UniProt P61012)
Assay: FRET or BRET; in-cell binding assay, acceptor sensitization FRET in living AAV-293 cells co-transfected with Cer-PLN-AFA and YFP-PLN-AFA (1:5); FRET against relative protein concentration cell by cell, hyperbolic fit; apparent KD1 of the PLN-PLN oligomer; with or without 1 uM 50-mer ssDNA

Chain of Cer-PLN-AFA and YFP-PLN-AFA: canine phospholamban AFA mutant fused at its N-terminus with mCerulean or enhanced YFP (P61012 whole entry, stated change not applied, the tested form may be a part): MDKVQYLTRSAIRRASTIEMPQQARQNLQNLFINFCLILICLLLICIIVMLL

Cer-PLN-AFA and YFP-PLN-AFA: canine phospholamban AFA mutant fused at its N-terminus with mCerulean or enhanced YFP (from UniProt P61012 1-52) (natural protein)
increase in PLN oligomerization with 50-mer ssDNA against no ssDNA: 20%
